Measurements reported in patent US20210395344A1 (TWIST BIOSCIENCE, published 2021).

B1: SARS-CoV-2 variant 1-41 (antibody, V domains shown)
VH: EVQLLESGGGLVQPGGSLRLSCAASGFTFSSYDMSWVRQAPGKGLEWVSVISGSGGSTYYADSVKGRFTISRDNSKNTLYLQMNSLRAEDTAVYYCAKGPLVGWYFDLWGQGTLVTVSS
VL: QSALTQPASVSGSPGQSITISCTGTSSDIGSYNLVSWYQQHPGKAPKLMIYEGTKRPSGVSNRFSGSKSGNTASLTISGLQAEDEADYYCCSYAGSRTYVFGGGTKLTVL
B2: SARS-CoV-2 variant 1-45 (antibody, V domains shown)
VH: EVQLLESGGGLVQPGGSLRLSCAASGFTFSSYAMSWVRQAPGKGLEWVSIISGSAGSTYYADSVKGRFTISRDNSKNTLYLQMNSLRAEDTAVYYCARDGYKYCLWGQGTLVTVSS
VL: QSALTQPASVSGSPGQSITISCTGTSSDIGSYNLVSWYQQHPGKAPKLMIYEGTKRPSGVSNRFSGSKSGNTASLTISGLQAEDEADYYCCSYAGSRTYVFGGGTKLTVL
B3: SARS-CoV-2 variant 1-49 (antibody, V domains shown)
VH: EVQLLESGGGLVQPGGSLRLSCAASGFTFSSYAMYWVRQAPGKGLEWVSAISGSAGSTYYADSVKGRFTISRDNSKNTLYLQMNSLRAEDTAVYYCARDTNDFWGQGTLVTVSS
VL: QSALTQPASVSGSPGQSITISCTGTSSDIGSYNLVSWYQQHPGKAPKLMIYEGTKRPSGVSNRFSGSKSGNTASLTISGLQAEDEADYYCCSYAGSRTYVFGGGTKLTVL
B4: SARS-CoV-2 variant 1-50 (antibody, V domains shown)
VH: EVQLLESGGGLVQPGGSLRLSCAASGFTFSSYDMSWVRQAPGKGLEWVSAISGSGGTTYYADSVKGRFTISRDNSKNTLYLQMNSLRAEDTAVYYCARGPLDFWGQGTLVTVSS
VL: QSALTQPASVSGSPGQSITISCTGTSSDIGSYNLVSWYQQHPGKAPKLMIYEGTKRPSGVSNRFSGSKSGNTASLTISGLQAEDEADYYCCSYAGSRTYVFGGGTKLTVL
B5: SARS-CoV-2 variant 1-39 (antibody, V domains shown)
VH: EVQLLESGGGLVQPGGSLRLSCAASGFTFSSYAMYWVRQAPGKGLEWVTAISGSGGSTFYADSVKGRFTISRDNSKNTLYLQMNSLRAEDTAVYYCTRPPYGYYGDYWGQGTLVTVSS
VL: QSALTQPASVSGSPGQSITISCTGTSSDIGSYNLVSWYQQHPGKAPKLMIYEGTKRPSGVSNRFSGSKSGNTASLTISGLQAEDEADYYCCSYAGSRTYVFGGGTKLTVL
B6: SARS-CoV-2 variant 1-46 (antibody, V domains shown)
VH: EVQLLESGGGLVQPGGSLRLSCAASGFTFTSYAMSWVRQAPGKGLEWVSAISGSGGSTYYADSVKGRFTISRDNSKNTLYLQMNSLRAEDTAVYYCANDTSDFCFGYWIFDPWGQGTLVTVSS
VL: QSALTQPASVSGSPGQSITISCTGTSSDIGSYNLVSWYQQHPGKAPKLMIYEGTKRPSGVSNRFSGSKSGNTASLTISGLQAEDEADYYCCSYAGSRTYVFGGGTKLTVL
B7: SARS-CoV-2 variant 1-48 (antibody, V domains shown)
VH: EVQLLESGGGLVQPGGSLRLSCAASGFTFSSHAMYWVRQAPGKGLEWVSAISGSAGSTYYADSVKGRFTISRDNSKNTLYLQMNSLRAEDTAVYYCAHDTKDFWSGYCIFDPWGQGTLVTVSS
VL: QSALTQPASVSGSPGQSITISCTGTSSDIGSYNLVSWYQQHPGKAPKLMIYEGTKRPSGVSNRFSGSKSGNTASLTISGLQAEDEADYYCCSYAGSRTYVFGGGTKLTVL
B8: SARS-CoV-2 variant 1-2 (antibody, V domains shown)
VH: EVQLLESGGGLVQPGGSLRLSCAASGFTFSSQAMSWVRQAPGKGLEWVSAISGSGGGTYYADSVKGRFTISRDNSKNTLYLQMNSLRAEDTAVYYCAKDRRFGEFDPWGQGTLVTVSS
VL: QSALTQPASVSGSPGQSITISCTGTSSGVGSYNLVSWYQQHPGKAPKLMIYEGIKRPSGVSNRFSGSKSGNTASLTISGLQAEDEADYYCCSYAGSSSFVVFGGGTKLTVL
B9: SARS-CoV-2 variant 1-43 (antibody, V domains shown)
VH: EVQLLESGGGLVQPGGSLRLSCAASGFTFSSQAMSWVRQAPGKGLEWVTAISGSGGGTYYADSVKGRFTISRDNSKNTLYLQMNSLRAEDTAVYYCAKDTIFGEFYPWGQGTLVTVSS
VL: QSALTQPASVSGSPGQSITISCTGTSSDIGSYNLVSWYQQHPGKAPKLMIYEGTKRPSGVSNRFSGSKSGNTASLTISGLQAEDEADYYCCSYAGSRTYVFGGGTKLTVL
B10: SARS-CoV-2 variant 1-35 (antibody, V domains shown)
VH: EVQLLESGGGLVQPGGSLRLSCAASGFTFSNYAMSWVRQAPGKGLEWVSDISGSGGSTYYADSVKGRFTISRDNSKNTLYLQMNSLRAEDTAVYYCVKGTIPIFGVIRSAFDYWGQGTLVTVSS
VL: QSALTQPASVSGSPGQSITISCTGTSSDVGSYSLVSWYQQHPGKAPKLMIYEGTKRPSGVSNRFSGSKSGNTASLTISGLQAEDEADYYCCSYAGSYSYVVFGGGTKLTVL
B11: SARS-CoV-2 variant 1-20 (antibody, V domains shown)
VH: EVQLLESGGGLVQPGGSLRLSCAASGITFSSYAMSWVRQAPGKGLEWVSGISGSGGSTYYADSVKGRFTISRDNSKNTLYLQMNSLRAEDTAVYYCANHGSGTIFGVVIAKYYFDYWGQGTLVTVSS
VL: QSALTQPASVSGSPGQSITISCTGTSSDVGHYNLVSWYQQHPGKAPKLMIYEGTKRPSGVSNRFSGSKSGNTASLTISGLQAEDEADYYCCSYAGSSSFVVFGGGTKLTVL
B12: SARS-CoV-2 variant 1-3 (antibody, V domains shown)
VH: EVQLLESGGGLVQPGGSLRLSCAASGFTFSSQAMSWVRQAPGKGLEWVSAISGSGGGTYYADSVKGRFTISRDNSKNTLYLQMNSLRAEDTAVYYCAKDRRFGEFDPWGQGTLVTVSS
VL: QSALTQPASVSGSPGQSITISCTGISSDVGSYNLVSWYQQHPGKAPKLMIYEGTKRPSGVSNRFSGSKSGNTASLTISGLQAEDEADYYCCSYAGSSSFVVFGGGTKLTVL
B13: SARS-CoV-2 variant 1-44 (antibody, V domains shown)
VH: EVQLLESGGGLVQPGGSLRLSCAASGFTFSSQAMSWVRQAPGKGLEWVTAISGSGGGTYYADSVKGRFTISRDNSKNTLYLQMNSLRAEDTAVYYCAKDRKFGEFDPWGQGTLVTVSS
VL: QSALTQPASVSGSPGQSITISCTGTSSDIGSYNLVSWYQQHPGKAPKLMIYEGTKRPSGVSNRFSGSKSGNTASLTISGLQAEDEADYYCCSYAGSRTYVFGGGTKLTVL

Legend:
Test in all cases: phage ELISA
[1] = molecular target: T1, COVID S1 RBM Fc fusion (Antigen 2) (SARS-CoV-2, UniProt P0DTC2 437-508)
T1 construct: domain: RBM

[2] = molecular target: T2, SARS-CoV-2 S1 (subunit 1) protein (SARS-CoV-2, UniProt P0DTC2 16-685)
T2 construct: also called biotinylated SARS-CoV-2 S1

[3] = molecular target: S1-Fc (SARS-CoV-2, UniProt P0DTC2 16-685)

| Binder | specificity ELISA, fold over background [1] | specificity ELISA, percent binding relative to Acro S1 [1] | screening ELISA (Avg), fold over background [2] | specificity ELISA, fold over background [3] | specificity ELISA, percent binding relative to Acro S1 [3] |
| --- | --- | --- | --- | --- | --- |
| B1 | 1.2 fold over background | 26.3% | 18.1 fold over background | – | – |
| B2 | 1 fold over background | 8.3% | – | – | – |
| B3 | 0.8 fold over background | 78.8% | – | – | – |
| B4 | 0.8 fold over background | 5.9% | – | – | – |
| B5 | 1.3 fold over background | 6.7% | – | – | – |
| B6 | 0.9 fold over background | 19.8% | – | – | – |
| B7 | 0.8 fold over background | 30.3% | – | – | – |
| B8 | 1.7 fold over background | 93.5% | 24.2 fold over background | 1.7 fold over background | 95.4% |
| B9 | 1 fold over background | 14.5% | – | – | – |
| B10 | 1.6 fold over background | 7.3% | – | – | – |
| B11 | 0.8 fold over background | 14.5% | – | – | – |
| B12 | 1.5 fold over background | 91.9% | 23.9 fold over background | 1.5 fold over background | 91.2% |
| B13 | 0.8 fold over background | 7.6% | – | – | – |
